Reference: article PMC2585067

Biological target: EYFP, free protein expressed in HeLa cells (Aequoria victoria)
Assay: FRET or BRET

- cross-bleed corrected FRET normalized to fluorescence of donor: 6.2%
Substance: ECFP, free protein expressed in HeLa cells
